The target in assay [1] is bovine pancreatic trypsin (bovine). Description: chromogenic enzyme inhibition assay; 1 nM trypsin, 500 μM S2765, 37 °C, 110 mM Tris-HCl pH 8.0, 250 mM NaCl, 1% BSA; residual activity in triplicate at at least six inhibitor concentrations; Ki from a linear fit of 1/v against inhibitor concentration.
Assay [2] has as its target activated coagulation factor XI (FXIa). Description: chromogenic enzyme inhibition assay; 200 pM FXIa, 500 μM S2366, 37 °C, 110 mM Tris-HCl pH 8.0, 250 mM NaCl, 1% BSA; residual activity in triplicate at at least six inhibitor concentrations; Ki from a linear fit of 1/v against inhibitor concentration.
The target in assay [3] is activated coagulation factor XII (FXIIa). Description: chromogenic enzyme inhibition assay; 1 nM FXIIa, 500 μM S2302, 37 °C, 110 mM Tris-HCl pH 8.0, 250 mM NaCl, 1% BSA; residual activity in triplicate at at least six inhibitor concentrations; Ki from a linear fit of 1/v against inhibitor concentration.

A word on the Ki: it is a dissociation constant, usually derived from enzyme kinetics or from competition with a known ligand. With “CHFI-2, synthetic cyclic peptide that resembles the CHFI protease-binding loop (from UniProt P01088 48-73)”, the Ki in assay [1] was determined as 11700 nM; in assay [2] it was 94000 nM.

In assay [3], “CHFI-123 (from UniProt P01088 29-121) (domain or fragment)” yielded a Ki of 116 nM.

“CHFI-234 (from UniProt P01088 40-136) (domain or fragment)”: the Ki in assay [1] came out at 2.2 nM; in assay [3], 3.2 nM.

For the substance “CHFI-1234 (from UniProt P01088 29-108) (domain or fragment)”, the Ki in assay [1] and in assay [3] was 1 nM throughout.

Values taken from publication PMC4022879.
